Experimental data from patent US20210292413A1 (ACADEMIA SINICA, published 2021).

B1: SHP-1 (enzyme)
chain: not shown
B2: anti-Siglec-3 mAb clone 10C8 (antibody, human IgG1, kappa, V domains shown)
VH: EVQLVESGGGLVQPGGSLRLSCAASGFTINNGWIHWVRQAPGKGLEWVAGIGPYGGSTFYADSVKGRFTISADTSKNTAYLQMNSLRAEDTAVYYCSRFIGSYSHMDYWGQGTLVTVSS
VL: DIQMTQSPSSLSASVGDRVTITCRASQDVYYYVAWYQQKPGKAPKLLISSAGGLYSGVPSRFSGSGSGTDFTLTISSLQPEDFATYYCQQYFNFPLTFGQGTKVEIKR
notes: the isotype control used beside it is IgG1; also called mAb 10C8; antibody 10C8

Experiments:
[1] = molecular target: T1, human Siglec-3 on cells (moDC, PBMC of CHB patients) (human, UniProt P20138 18-364); experiment: co-IP (IP: Siglec-3) from moDC treated with anti-Siglec-3 mAb 10C8; Western blot, densitometry, fold of Mock [A]
T1 construct: whole, on cells; also called Siglec-3 receptor
T1 sequence (P20138 18-364): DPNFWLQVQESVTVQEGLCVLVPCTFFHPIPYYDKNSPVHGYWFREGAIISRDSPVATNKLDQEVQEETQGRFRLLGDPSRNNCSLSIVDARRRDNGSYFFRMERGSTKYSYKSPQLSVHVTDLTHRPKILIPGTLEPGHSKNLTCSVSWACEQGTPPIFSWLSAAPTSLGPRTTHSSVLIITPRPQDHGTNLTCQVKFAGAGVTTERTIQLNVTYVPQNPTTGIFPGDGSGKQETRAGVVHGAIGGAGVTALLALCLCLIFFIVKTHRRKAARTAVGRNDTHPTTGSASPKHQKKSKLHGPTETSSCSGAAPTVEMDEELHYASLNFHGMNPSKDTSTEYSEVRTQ

[2] = molecular target: T1, human Siglec-3 on cells (moDC, PBMC of …); experiment: co-IP (IP: Siglec-3) from moDC treated with anti-Siglec-3 mAb 2B9; Western blot, densitometry, fold of Mock; strong band at the 72 mark [A]
[3] = molecular target: T1, human Siglec-3 on cells (moDC, PBMC of …); experiment: co-IP (IP: Siglec-3) from moDC incubated with hHBV for 60 min; Western blot, densitometry, normalized to the starting point [E]
[4] = molecular target: T1, human Siglec-3 on cells (moDC, PBMC of …); experiment: co-IP (IP: Siglec-3) from moDC, lane Mock; Western blot, densitometry [A]
[5] = molecular target: T1, human Siglec-3 on cells (moDC, PBMC of …); experiment: co-IP (IP: Siglec-3) from moDC treated with HBV (hHBV); Western blot, densitometry, fold of Mock [A]
[6] = molecular target: T1, human Siglec-3 on cells (moDC, PBMC of …); experiment: co-IP (IP: Siglec-3) from moDC incubated with hHBV for 0 min; Western blot, densitometry, normalized to the starting point [E]
[7] = molecular target: T1, human Siglec-3 on cells (moDC, PBMC of …); experiment: co-IP (IP: Siglec-3) from moDC incubated 30 mins with 10^8 copies/mL hHBV; Western blot, densitometry, normalized to the first lane [F]
[8] = molecular target: T1, human Siglec-3 on cells (moDC, PBMC of …); experiment: co-IP (IP: Siglec-3) from moDC incubated 30 mins with 0 copies/mL hHBV; Western blot, densitometry, normalized to the first lane [F]
[9] = molecular target: T1, human Siglec-3 on cells (moDC, PBMC of …); experiment: co-IP (IP: Siglec-3) from moDC, HBV -, 10C8 -; Western blot, densitometry, normalized to the untreated control [E]
[10] = molecular target: T1, human Siglec-3 on cells (moDC, PBMC of …); experiment: co-IP (IP: Siglec-3) from moDC incubated with hHBV for 15 min; Western blot, densitometry, normalized to the starting point [E]
[11] = molecular target: T1, human Siglec-3 on cells (moDC, PBMC of …); experiment: co-IP (IP: Siglec-3) from moDC, HBV -, 10C8 +; Western blot, densitometry, normalized to the untreated control [E]
[12] = molecular target: T1, human Siglec-3 on cells (moDC, PBMC of …); experiment: co-IP (IP: Siglec-3) from moDC, HBV +, 10C8 -; Western blot, densitometry, normalized to the untreated control [E]
[13] = molecular target: T1, human Siglec-3 on cells (moDC, PBMC of …); experiment: co-IP (IP: Siglec-3) from moDC incubated with hHBV for 30 min; Western blot, densitometry, normalized to the starting point [E]
[14] = molecular target: T1, human Siglec-3 on cells (moDC, PBMC of …); experiment: co-IP (IP: Siglec-3) from moDC incubated 30 mins with 3x10^8 copies/mL hHBV; Western blot, densitometry, normalized to the first lane [F]
[15] = molecular target: T1, human Siglec-3 on cells (moDC, PBMC of …); experiment: co-IP (IP: Siglec-3) from moDC incubated 30 mins with 10^9 copies/mL hHBV; Western blot, densitometry, normalized to the first lane [F]
[16] = molecular target: T1, human Siglec-3 on cells (moDC, PBMC of …); experiment: co-IP (IP: Siglec-3) from moDC, HBV +, 10C8 + (10C8 given 1 hour before HBV); Western blot, densitometry, normalized to the untreated control [E]
[17] = molecular target: T1, human Siglec-3 on cells (moDC, PBMC of …); experiment: flow cytometry on moDC with APC-conjugated anti-Siglec-3 mAb

Binder	fold change of SHP-1 co-precipitated with Siglec-3 [1]	fold change of SHP-1 co-precipitated with Siglec-3 [2]	fold change of SHP-1 co-precipitated with Siglec-3 [3]	fold change of SHP-1 co-precipitated with Siglec-3 [4]	fold change of SHP-1 co-precipitated with Siglec-3 [5]	fold change of SHP-1 co-precipitated with Siglec-3 [6]	fold change of SHP-1 co-precipitated with Siglec-3 [7]	fold change of SHP-1 co-precipitated with Siglec-3 [8]	fold change of SHP-1 co-precipitated with Siglec-3 [9]	fold change of SHP-1 co-precipitated with Siglec-3 [10]	fold change of SHP-1 co-precipitated with Siglec-3 [11]	fold change of SHP-1 co-precipitated with Siglec-3 [12]	fold change of SHP-1 co-precipitated with Siglec-3 [13]	fold change of SHP-1 co-precipitated with Siglec-3 [14]	fold change of SHP-1 co-precipitated with Siglec-3 [15]	fold change of SHP-1 co-precipitated with Siglec-3 [16]	binding result [17]
B1	1.3 fold	36 fold	11 fold	1 fold	2.4 fold	1 fold	1.5 fold	1 fold	1 fold	9.1 fold	1.3 fold	10 fold	26 fold	7.7 fold	14 fold	1.2 fold	
B2																	binds
